Measured values from patent US20030061635A1, “Pollen-specific novel calmodulin-binding protein, NPG1 (No Pollen Germination1), promoter, coding sequences and methods for using the same” (priority 2001, published 2003).

Experiments:
[1] = tested on: CaM isoforms 2, 4, and 6 from Arabidopsis; test: Slot blot: synthetic peptides probed with 35S-labeled AtCaM isoforms; assay type: binding, Arabidopsis thaliana
Method: Soluble and insoluble proteins from the induced and un-induced cultures were separated on 12% SDS-polyacrylamide gels and blotted as described above. To detect the binding of the expressed proteins to ^35S-labeled AtCaM, duplicate blots were blocked for 15 min in TBS (50 mM Tris-HCl, pH 7.5, 150 mM NaCl) containing 5 mM of either CaCl2 or EGTA and 1% nonfat dry milk. The blots were then incubated for 12 h in a mixture of ^35S-labeled AtCaM isoforms at […] in the same buffers as above. The filters were then washed with the corresponding buffer and dried before exposing to X-ray film. Binding to biotinylated CaM was detected by blocking the blots in 3% gelatin in TBS/Ca/Mg or TBS/EGTA/Mg (50 mM Tris-HCl, pH 7.5, 50 mM MgCl2, 150 mM NaCl, and 5 mM of either CaCl2 or EGTA) at 30° C. […] The blots were then incubated in Vectastain ABC.HRP in TBS/Ca/Mg or TBS/EGTA/Mg for 30 min, washed 3 times, 10 min each, with the above buffer and the CaM-binding proteins were detected colorimetrically in a substrate solution (0.8 mg/ml diaminobenzidine, 0.4 mg/ml NiCl2, and 0.009% H2O2 in 100 mM Tris-HCl, pH 7.5). […]
The interaction between synthetic peptides and AtCaM isoforms was analyzed by applying synthetic peptides to a nitrocellulose membrane in a slot blot apparatus, and incubating the membrane individually with ^35S-labeled AtCaM isoforms using the method described above.

35S-labeled AtCaM = test: Blot overlay of bacterially expressed maize NPG1 fusion proteins with 35S-CaM; assay type: binding, Arabidopsis thaliana; conditions: in the presence of Ca2+
Method: The 1.2-kb cDNA insert (named P3) containing the coding region for 242 amino acids in the carboxyl-terminal region was cloned in-frame into a pET28b expression vector. For mapping the CaM-binding domain, several truncated constructs were prepared in a pET vector. The P3 cDNA in pET28 was digested with either NcoI or BamHI to release a 168- or 717-bp fragment corresponding to the 5′ end of the cDNA. The NcoI and BamHI fragments were cloned into pET28b vector digested with the respective enzymes to generate P3/NcoI and P3/BamHI clones. The P3 clones lacking either NcoI or BamHI fragments were religated to generate PΔNcoI and PΔBamHI expression clones. […]
Soluble and insoluble proteins from the induced and un-induced cultures were separated on 12% SDS-polyacrylamide gels and blotted as described above. […] Binding to biotinylated CaM was detected by blocking the blots in 3% gelatin in TBS/Ca/Mg or TBS/EGTA/Mg (50 mM Tris-HCl, pH 7.5, 50 mM MgCl2, 150 mM NaCl, and 5 mM of either CaCl2 or EGTA) at 30° C. […] The blots were then incubated in Vectastain ABC.HRP in TBS/Ca/Mg or TBS/EGTA/Mg for 30 min, washed 3 times, 10 min each, with the above buffer and the CaM-binding proteins were detected colorimetrically in a substrate solution (0.8 mg/ml diaminobenzidine, 0.4 mg/ml NiCl2, and 0.009% H2O2 in 100 mM Tris-HCl, pH 7.5).

CaM = CaM binding of truncated Arabidopsis NPG1
Text: To map the CaM-binding domain, a truncated version (aa 448-496 of SEQ ID NO:10) of Arabidopsis NPG1 which contains a putative calmodulin-binding domain was expressed in E. coli and tested for its ability to bind CaM. […] The CBD was further mapped to an eighteen amino acid stretch (aa 464-481) by using synthetic peptides in a gel-shift assay.

CaM2 = biological target: T1, CaM2 (Arabidopsis thaliana, UniProt P0DH97); test: Tryptophan fluorescence spectroscopy of peptide with CaM; assay type: binding; conditions: equimolar peptide and CaM2, excitation 290 nm; free peptide about 350 nm
T1 construct: made in house; host or cells: E. coli BL21(DE3)
Method: (§1) The tryptophan fluorescence spectra of free and CaM-bound synthetic peptide were recorded with a Hitachi-F-3010/4010 spectrofluorimeter as described in Reddy et al. (1996) supra. NPG1 peptide and AtCaMs (166 pmol each) were mixed in a […] reaction volume. The tryptophan residue in free and CaM-bound synthetic NPG1 peptide was excited at 290 nm and the emission wavelength values were recorded from 300 to 400 nm with a bandwidth of 5 nm in a 5-mm quartz cell at 25° C. Samples were incubated for 1 h at 25° C. prior to spectroscopic measurements. Corrections were made for the protein and solvent blanks.

CaM4 = biological target: T2, CaM4 (Arabidopsis thaliana, UniProt P0DH96); test: as above; assay type: binding
T2 construct: made in house; host or cells: E. coli BL21(DE3)
Method: as §1

CaM6 = biological target: T3, CaM6 (Arabidopsis thaliana, UniProt Q03509); test: as above; assay type: binding; conditions: equimolar peptide and CaM6, excitation 290 nm; free peptide about 350 nm
T3 construct: made in house; host or cells: E. coli BL21(DE3)
Method: as §1

bovine CaM [2] = biological target: T4, bovine CaM (Bos taurus, UniProt P62157); test: as above; assay type: binding; conditions: equimolar peptide and bovine CaM, excitation 290 nm; free peptide about 350 nm
T4 construct: purchased Calbiochem-Novabiochem (San Diego, Calif.)
Method: as §1

bovine CaM [3] = biological target: T4, bovine CaM; test: Calmodulin electrophoretic mobility shift assay in 4 M urea gels; assay type: binding
Method: (§2) The interaction of CaM with synthetic peptide was also analyzed using electrophoretic mobility shift of CaM in the presence of a synthetic peptide. Each of the AtCaM isoforms and bovine CaM (166 pmol) were incubated with increasing concentrations of maize NPG1-synthetic peptide (166, 332, and 664 pmol) in the presence of 4 M urea, in a buffer containing 100 mM Tris-HCl, pH 7.5, and 1 mM CaCl2 or 5 mM EGTA at room temperature for 1 h in a total volume of […]. Then, […] of sample buffer (0.375 M Tris-HCl, pH 6.8, 30% glycerol, and 0.023% bromphenol blue) was added to the samples and the mixture was electrophoresed in 12% polyacrylamide gels containing 4 M urea or 7.5% glycerol, 0.375 M Tris-HCl, pH 8.8, and either 1 mM CaCl2 or 5 mM EGTA. The gels were run at a constant voltage of 25 V per gel in an electrode buffer (25 mM Tris-HCl, pH 8.3, 192 mM glycine, and either 1 mM CaCl2 or 5 mM EGTA). The gels were stained with 0.25% Coomassie Blue R-250 in 7.5% acetic acid and 50% methanol for 1 h and then destained with 30% methanol and 7% acetic acid.

[4] = tested on: AtCaM isoforms (CaM2, CaM4, CaM6); test: as above; assay type: binding, Arabidopsis thaliana
Method: as §2

bovine CaM [5] = biological target: T4, bovine CaM; test: Binding of synthetic peptide to bovine CaM; conditions: 'at concentrations as low as'
[6] = molar ratio 1:1 (peptide:CaM), CaCl2, 4 M urea
[7] = molar ratio 2:1 and 4:1 (peptide:CaM), CaCl2, 4 M urea

Q: “AKLDQGSLLRVKA-KLKVAQSSPM (AKLDQGSLLRVKAKLKVAQSSPM) [MP-2]” was tested. Which “binding to the labeled CaM isoforms” value ([1]; 35S-labeled AtCaM isoforms, slot blot) did it give?
A: Its value is “Neither MP2 nor BSA showed any binding”.

Q: How did the “binding to 35S-CaM” value (35S-labeled AtCaM) turn out when “P3/NcoI: truncated P3 fusion protein (16 kDa) from the 168-bp NcoI fragment at the 5′ end of the cDNA (GGSVSKGWRLLALILSAQQRFSEAEVATDAALDETAKLDQGSLLRVKAKLKVAQSSP; left off: small tags and cut ends)” was run?
A: The value was “produced CaM-binding peptide”.

Q: How did the “ability to bind CaM” value (CaM) turn out when “truncated version (aa 448-496 of SEQ ID NO:10): truncated Arabidopsis NPG1 containing a putative calmodulin-binding domain, expressed in E. coli (AASRYAKEFIDATGGSVLKGWRFLALVLSAQQRFSEAEVVTDAALDETA; listed as Arabidopsis thaliana)” was run?
A: Its value is “bound CaM in a manner similar to the full-length protein”.

Q: Which results are given for VSKGWRLLALILSAQQRF [MP-1]?
A: wavelength of peak emission (CaM2): about 315 nm; wavelength of peak emission (CaM4; equimolar peptide and CaM4, excitation 290 nm, free peptide about 350 nm): about 315 nm; fluorescence intensity (CaM4; in the presence of CaM4, free peptide about 0.1): about 4.5; wavelength of peak emission (CaM6): about 315 nm; wavelength of peak emission (bovine CaM [2]): about 315 nm; change in CaM mobility (bovine CaM [3]; in the presence of EGTA): No change in CaM mobility; CaM showing a mobility shift (bovine CaM [3]; [6]): about 50%; CaM migrating as peptide complex (bovine CaM [3]; [7]): the entire CaM migrated as a complex; lowest amount of synthetic peptide that bound CaM ([1]; CaM isoforms 2, 4, and 6, 'at concentrations as low as'): 0.5 µg; change in CaM mobility ([4]; in the presence of EGTA): No change in CaM mobility; CaM showing a mobility shift [4, 6]: about 50%; CaM migrating as peptide complex [4, 7]: the entire CaM migrated as a complex; lowest amount of synthetic peptide that bound CaM (bovine CaM [5]): 0.5 µg
